One block for each substance: values may come before it.
Legend:
[1] = target: His-tagged Sll1961 (wild type) (Synechocystis sp. PCC 6803); assay: SEC-MALS; size exclusion chromatography with static light scattering (Viscotek TDA 305), Superdex 75 increase 3.2/300; BSA as standard
[2] = target: His-tagged Sll1961 (wild type) (Synechocystis sp. PCC 6803); assay: SEC; His-Sll1961 reduced with 100 mM DTT for 15 min at room temperature, 60 μM; Superdex 75 increase 3.2/300 or Superdex 200 increase 3.2/300; 20 mM sodium phosphate (pH 7.4), 150 mM NaCl, 3 mM DTT; standards of 150, 66 and 44 kDa
[3] = target: His-tagged Sll1961 C124A (Synechocystis sp. PCC 6803); assay: SEC-MALS; size exclusion chromatography with static light scattering (Viscotek TDA 305), Superdex 75 increase 3.2/300; BSA as standard
[4] = target: His-tagged Sll1961 C124A (Synechocystis sp. PCC 6803); assay: SEC; His-Sll1961 reduced with 100 mM DTT for 15 min at room temperature, 60 μM; Superdex 75 increase 3.2/300 or Superdex 200 increase 3.2/300; 20 mM sodium phosphate (pH 7.4), 150 mM NaCl, 3 mM DTT; standards of 150, 66 and 44 kDa
[5] = target: His-tagged Sll1961 C229A (Synechocystis sp. PCC 6803); assay: SEC-MALS; size exclusion chromatography with static light scattering (Viscotek TDA 305), Superdex 75 increase 3.2/300; BSA as standard
[6] = target: His-tagged Sll1961 C229A (Synechocystis sp. PCC 6803); assay: SEC; His-Sll1961 reduced with 100 mM DTT for 15 min at room temperature, 60 μM; Superdex 75 increase 3.2/300 or Superdex 200 increase 3.2/300; 20 mM sodium phosphate (pH 7.4), 150 mM NaCl, 3 mM DTT; standards of 150, 66 and 44 kDa
[7] = target: His-tagged Sll1961 C307A (Synechocystis sp. PCC 6803); assay: SEC-MALS; size exclusion chromatography with static light scattering (Viscotek TDA 305), Superdex 75 increase 3.2/300; BSA as standard
[8] = target: His-tagged Sll1961 C307A (Synechocystis sp. PCC 6803); assay: SEC; His-Sll1961 reduced with 100 mM DTT for 15 min at room temperature, 60 μM; Superdex 75 increase 3.2/300 or Superdex 200 increase 3.2/300; 20 mM sodium phosphate (pH 7.4), 150 mM NaCl, 3 mM DTT; standards of 150, 66 and 44 kDa

stoichiometry N [1]: 2
stoichiometry N [2]: 2
Substance: His-tagged Sll1961 (wild type) (natural protein)

stoichiometry N [3]: 2
stoichiometry N [4]: 2
Substance: His-tagged Sll1961 C124A (natural protein)

stoichiometry N [5]: 2
stoichiometry N [6]: 2
Substance: His-tagged Sll1961 C229A (natural protein)

stoichiometry N [7]: 2
stoichiometry N [8]: 2
Substance: His-tagged Sll1961 C307A (natural protein)

Reference: PMC5923263
